# Laboratory results: paper PMC6104973
# pKd: −log10 of the molar value.
# What was measured:
# [1] = target: ALX148 (human); assay: SPR; hFcRn flowed (0-5000 nM) over ALX proteins captured on a GLC chip with immobilised human CD47 ECD; 25°C; PBS pH 5.8, 0.01% Tween-20; equilibrium analysis; apparent
# [2] = target: CD47 (Homo sapiens) (UniProt Q08722); settings: cited from earlier work
# Sequence of UniProt Q08722 (Q08722 19-323): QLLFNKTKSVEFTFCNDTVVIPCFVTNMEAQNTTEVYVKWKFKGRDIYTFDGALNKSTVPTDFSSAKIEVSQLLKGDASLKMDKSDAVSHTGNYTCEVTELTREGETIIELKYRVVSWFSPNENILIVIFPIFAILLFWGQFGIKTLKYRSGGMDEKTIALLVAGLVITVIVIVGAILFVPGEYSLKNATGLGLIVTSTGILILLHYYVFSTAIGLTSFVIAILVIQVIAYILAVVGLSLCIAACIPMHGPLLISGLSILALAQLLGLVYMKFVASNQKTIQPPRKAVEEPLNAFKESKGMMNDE
pKd [1],Substance,pKd [2]
6.24,human neonatal Fc receptor (FcRn) (from UniProt P55899 24-297),–
–,SIRPα (from UniProt P78324),6.00
